B1: scFD20 (single-chain variable fragment of FD20) (scFv, V domains shown)
VH: QVQLQQSGAEVKKPGSSVKVSCKASGGTFSSYAFSWVRQAPGQGLEWMGRIIPILGIANYAQKFQGRVTITADISTSTAYMALSSLRSEDTAVYYCAKVEVNIGMDDYYYYYGMDVWGQGTTVTVSS
VL: not shown
notes: also called scFv of FD20; scFv FD20; source: E. coli MC1061, periplasmic release, purified (Ni-NTA)
B2: FD20 (IgG format) (antibody, V domains shown)
VH: QVQLQQSGAEVKKPGSSVKVSCKASGGTFSSYAFSWVRQAPGQGLEWMGRIIPILGIANYAQKFQGRVTITADISTSTAYMALSSLRSEDTAVYYCAKVEVNIGMDDYYYYYGMDVWGQGTTVTVSS
VL: not shown

What was measured:
[1] = target: T1, SARS-CoV-2 S receptor-binding domain (RBD), biotinylated (SARS-CoV-2, UniProt P0DTC2, biotin on the Avi tag (enzymatic, BirA)); test: BLI; conditions: both partners purified
T1 construct: also called wild-type RBD; WT

[2] = target: T1, SARS-CoV-2 S receptor-binding domain …; test: cell-based or functional assay

Row | Binder | Kd [1] | neutralisation of SARS-CoV-2 pseudovirus particles (pp), IC50 [2] | microneutralisation of authentic SARS-CoV-2 hCoV-19/China/CAS-B001/2020, IC50 [2]
1 | B1 | 5.6 nM | 117 nM | 
2 | B2 |  |  | 5.2 nM

Source: publication PMC8646660 (EMBO Molecular Medicine, 2021)
